B1: GST-hBAP1(483-594 of SEQ ID NO: 2) fusion protein lacking the minimal interaction domain (other)
chain: QPSPTPSNESTDTASEIGSAFNSPLRSPIRSANPTRPSSPVTSHISKVLFGEDDSLLRVDCIRYNRAVRDLGPVISTGLLHLAEDGVLSPLALTEGGKGSSPSIRPIQGSQG
B2: LexA-BRCA1-RF fusion construct (amino-terminal 100 amino acids of human BRCA1, wild type, fused to the LexA DNA-binding domain) (other)
chain: MDLSALRVEEVQNVINAMQKILECPICLELIKEPVSTKCDHIFCKFCMLKLLNQKKGPSQCPLCKNDITKRSLQESTRFSQLVEELLKIICAFQLDTGLE

Columns and labels:
full length BRCA1 = full length BRCA1 (human, UniProt P38398); experiment: GST pull-down, SDS-PAGE and fluorography
[1] = molecular target: GST (glutathione-S-transferase alone) (Schistosoma japonicum (Blood fluke), UniProt P08515 = GST); experiment: GST pull-down, SDS-PAGE and fluorography

Binder | binding result (full length BRCA1) | binding result [1]
B1 | no binding | 
B2 |  | no binding
